Article PMC4018787 (The Journal of Cell Biology, 2014)

What was measured:
[1] = target: T1, recombinant fibrinogen-like (FBG) domain of tenascin-X (TNX), produced in mammalian cells (UniProt O18977 3911-4135); test: ELISA
T1 sequence (looked up): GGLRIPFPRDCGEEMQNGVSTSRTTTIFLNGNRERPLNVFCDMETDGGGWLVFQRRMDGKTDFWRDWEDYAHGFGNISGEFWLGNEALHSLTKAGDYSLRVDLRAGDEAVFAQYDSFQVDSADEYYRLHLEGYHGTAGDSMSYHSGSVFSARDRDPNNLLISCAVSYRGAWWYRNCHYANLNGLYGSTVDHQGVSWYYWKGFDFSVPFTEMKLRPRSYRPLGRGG

[2] = target: recombinant full-length tenascin-X (TNX) (UniProt O18977 23-4135); test: ELISA

B1: inserted (I) domain of the α11 integrin chain fused to GST (domain or fragment, human, UniProt Q9UKX5-1 160-358, looked up)
chain: QTYMDIVIVLDGSNSIYPWVEVQHFLINILKKFYIGPGQIQVGVVQYGEDVVHEFHLNDYRSVKDVVEAASHIEQRGGTETRTAFGIEFARSEAFQKGGRKGAKKVMIVITDGESHDSPDLEKVIQQSERDNVTRYAVAVLGYYNRRGINPETFLNEIKYIASDPDDKHFFNVTDEAALKDIVDALGDRIFSLEGTNKN
B1: binds [1]; binds [2].
